The target in the test is RNF13 DN-HA (dominant-negative RNF13, HA-tagged) (human) (UniProt O43567). The experiment in a line: co-IP.
Sequence of UniProt O43567 (O43567 35-381): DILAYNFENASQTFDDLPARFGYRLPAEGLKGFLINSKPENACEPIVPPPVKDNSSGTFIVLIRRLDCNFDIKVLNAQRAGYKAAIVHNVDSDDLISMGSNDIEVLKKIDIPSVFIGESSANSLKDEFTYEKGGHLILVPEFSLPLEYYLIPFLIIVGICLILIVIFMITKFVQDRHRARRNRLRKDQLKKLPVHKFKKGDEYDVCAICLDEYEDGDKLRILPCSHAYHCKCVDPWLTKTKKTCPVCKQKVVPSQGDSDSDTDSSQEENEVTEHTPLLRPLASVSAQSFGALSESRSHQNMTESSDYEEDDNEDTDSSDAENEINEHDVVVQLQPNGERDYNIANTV

B1: IDS-V5 (wild-type, full-length human iduronate 2-sulfatase, C-terminal V5 tag) (enzyme)
chain: SETQANSTTDALNVLLIIVDDLRPSLGCYGDKLVRSPNIDQLASHSLLFQNAFAQQAVCAPSRVSFLTGRRPDTTRLYDFNSYWRVHAGNFSTIPQYFKENGYVTMSVGKVFHPGISSNHTDDSPYSWSFPPYHPSSEKYENTKTCRGPDGELHANLLCPVDVLDVPEGTLPDKQSTEQAIQLLEKMKTSASPFFLAVGYHKPHIPFRYPKEFQKLYPLENITLAPDPEVPDGLPPVAYNPWMDIRQREDVQALNISVPYGPIPVDFQRKIRQSYFASVSYLDTQVGRLLSALDDLQLANSTIIAFTSDHGWALGEHGEWAKYSNFDVATHVPLIFYVPGRTASLPEAGEKLFPYLDPFDSASQLMEPGRQSMDLVELVSLFPTLAGLAGLQVPPRCPVPSFHVELCREGKNLLKHFRFRDLEEDPYLPGNPRELIAYSQYPRPSDIPQWNSDKPSLKDIKIMGYSIRTIDYRYTVWVGFNPDEFLANFSDIHAGELYFVDSDPLQDHNMYNDSQGGDLFQLLMP
B1 returned an amount of IDS co-immunoprecipitated relative to RNF13 WT of 50%.

The values above are taken from article doi:10.1101/2025.06.20.660705.
